Test results as given in US9872921B2, “DE-N-acetyl sialic acid antigens, antibodies thereto, and methods of use in cancer therapy” (priority 2004, dated 2018).

Legend:
[1] = tested on: SK-MEL 28 cells; experiment: Cell cycle analysis by propidium iodide staining and flow cytometry; type: cell-based, human; details: 100 nM, 48 h
Description: To further assess the affect of SEAM 3 mAb on cell growth, the stage of the cell cycle after treatment with SEAM 3 was determined. In this experiment, the cells were stained with the fluorescent DNA binding dye propidium iodide to characterize cell populations in various stages of the cell cycle and the effects of adding control antibodies, nocodazole (a drug that arrest the cells in mitosis) and SEAM 3.
Approximately 10^5 SK-MEL 28 cells were plated on a 96-well tissue culture plate and allowed to adhere. After 24 h the medium was replaced with one that had either antibody or drug and incubated for a further 48 h. Cells were spun (to collect any cells that may have detached), and fixed in 70% ice-cold methanol (added drop wise) for at least 30 minutes at 4° C. The cells were washed twice with PBS, and to ensure that only DNA was stained, the fixed cells were treated with ribonuclease I (100 μg/ml, source) for 30 minutes at 37° C. Propidium iodide (50 μg/ml) was added and samples were analyzed using a Guava EasyCyte flow cytometer.

[2] = tested on: SEAM 3; experiment: Inhibition ELISA of SEAM 3 binding to plate-coated N-Pr NmB PS-dodecylamine; set-up: species or system murine; details: dilution required to decrease absorbance at 405 nm by 50%
Sequence of SEAM 3 (as listed by the source): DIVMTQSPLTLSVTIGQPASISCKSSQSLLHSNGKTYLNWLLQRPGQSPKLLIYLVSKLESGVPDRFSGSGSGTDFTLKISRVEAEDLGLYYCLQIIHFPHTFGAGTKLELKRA
Sequence of SEAM 3 (as listed by the source): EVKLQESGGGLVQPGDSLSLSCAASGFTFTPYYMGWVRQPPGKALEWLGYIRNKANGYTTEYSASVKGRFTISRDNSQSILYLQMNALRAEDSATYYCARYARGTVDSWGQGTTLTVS
Description: The ability of colominic acid and N-Pr NmB PS to inhibit binding of SEAM 3 to in an ELISA was compared to sialidase A-treated colominic acid and N-Pr NmB PS prepared as described above. The wells of microtiter plates (Immulon 2; Dynatech Laboratories, Inc.) were coated with N-Pr NmB PS-dodecylamine (prepared as described in Example 1) in phosphate buffered saline (PBS; pH 7.4). The plates were incubated overnight at 4° C. After washing three times with PBS, the wells were filled with 200 μl of blocking buffer (PBS containing 1% bovine serum albumin [BSA, Sigma] and 0.1% sodium azide; [pH 7.4]) and then incubated for 30-60 min at room temperature to block nonspecific binding sites. The plates were washed three times with PBS buffer. Inhibitors were serially diluted in blocking buffer on the plate in total final volume of 50 μl. SEAM 3 diluted in blocking buffer to a concentration that produced an OD405 nm of 0.5 when developed with substrate was added to the wells in a volume of 50 μl. The plates were covered and incubated overnight at 4° C. […] The absorbance at 405 nm after 30 minutes incubation at ambient temperature was measured using a BioRad Model 550 microtiter plate reader. The relative activity of each sample was compared by determining the dilution required to decrease the absorbance at 405 nm by 50% of the absorbance observed in wells containing SEAM 3 but no inhibitor.

[3] = tested on: polysialic acid antigens expressed by the human neuronal cell line CHP-134; details: cited from earlier work
[4] = tested on: NmB strain M7; experiment: Fluorescence microscopy of SEAM 12 binding to capsule PS on NmB strain M7 grown with N-acyl mannosamine supplements; set-up: species or system Neisseria meningitidis
Excerpt: The trihaloacetylated mannosamine was incorporated into NmB PS by inoculating colonies of NmB strain M7 grown overnight at 37 degrees C. in 5% carbon dioxide on a freshly streaked chocolate agar plate to an OD620 nm of 0.1 in Muller-Hinton broth supplemented with 5 millimolar N-acyl mannosamine For example, N-acetyl, -trichloroacetyl, -trifluoroacetyl mannosamine. Stain M7 contains a transposon the interrupts the gene encoding N-acetyl-D-glucosamine-6-phosphate 2 epimerase (Swartley et al. 1994, J. Bact. 176:1530; Swartley et al. 1996, J. Bact. 178:4052). As a result, the bacteria cannot synthesize capsule PS unless the growth media was supplemented with N-acetyl mannosamine Therefore, the N-acyl content of the capsule PS synthesized in this system can be determined by the N-acyl or mixture of N-acyl mannosamine provided in the growth media. The bacteria were grown at 37 degrees C. […]).
There is no binding of SEAM 12 to M7 without N-acyl mannosamine or with N-trichloroacetyl mannosamine supplement (FIG. 37, panels B and C). […] However, SEAM 12 does bind to the capsule PS containing N-trifluoroacetyl groups (FIG. 37, panel D, shaded gray in the figure) since the trifluoromethyl group is nearly the same size as the methyl group of the N-acetyl derivative.

COC(=O)Nc1nc2cc(C(=O)c3cccs3)ccc2[nH]1 [nocodazole, reference compound]
cells arrested in G2/M phase [1]: approximately 50%

poly alpha (2→8) N-acetyl neuraminic acid [colominic acid]
activity for binding to SEAM 3, fold less than N-Pr NmB PS [2]: approximately 200 fold

B1: SEAM 35: anti-N-Pr NmB PS murine mAb (IgG2a) (antibody, V domains shown)
VH: EVKLEESGGGLVQPGGSLSLSCAASGFTFTDYYLSWVRQPPGKALEWLGFIRNTANGYTTEYSASVKGRFTIARDNSQSILTLQMNALRAEDSATYYCARWSRRAMDYWGQGTSVTVS
VL: DIVMTQSPISMSMSLGERVTLSCKASENVGTYVSWYQQKPEQSPKLLISGASNRYTGVPDRFTGSGSATDFTLTISSVQAEDLADYHCGQSYNYPYTFGGGTKLEIKRA
modifications: mouse
cross-reactivity with polysialic acid antigens expressed by CHP-134 [3]: greater cross-reactivity

B2: SEAM 12: anti-N-Pr NmB PS murine mAb (IgG2a) (antibody, V domains shown)
VH: QVKLEQSGGGLVRPGNSLKLSCVTSGFTFINYRMHWLRQPPGKRLEWIAVITDNSDNYVVNYAESVKGRFAISRDDSKSSVYLEMNRLREEDTATYFCSRSRRSFFDYWGQGTTLTVS
VL: DIVMTQTTVIMSASPGEKVTMTCSASSSVTYMHWYQQKSRTSPKLWIYDTSKLASGVPGRFSGSGSGNSYALTISSMEPEDVATYYCFQGSGYPLTFGAGTKLGLKRA
modifications: mouse
SEAM 12 binding to capsule PS ([4]; capsule PS containing N-trifluoroacetyl groups): does bind
SEAM 12 binding to M7 ([4]; growth media supplemented with N-acetyl mannosamine): binding is indicated by the presence of red fluorescence
SEAM 12 binding to M7 ([4]; with N-trichloroacetyl mannosamine supplement): no binding
SEAM 12 binding to M7 ([4]; without N-acyl mannosamine): no binding
